Measured values from US20190161756, “Anti-Immunoglobulin G Aptamers and Uses Thereof” (Laboratoire Francais du Fractionnement et des …, published 2019).

Experiments:
Settings in all cases: chain copies: 2; label: biotin
[1] = target: T1, IgG4 (plasma IgG sub-class) (Homo sapiens, UniProt P01861-1 P01861-1:1-327); test: SPR; pH 5.5; resistant to 2 M NaCl
[2] = target: T1, IgG4 (plasma IgG sub-class); test: SPR; pH 5.5; faster association, partly eluted by 2 M NaCl
Method: (§1) Plasma IgG's sub-classes were injected at pH 5.5 (in duplicates), whereby a complex was formed as evidenced by the increase of the signal. […] The solid support was then regenerated by injection of a solution of NaOH at 50 mM. X-axis: time in s. Y-axis: SPR response in arbitrary scale.
(§2) The selected aptamer was synthetized with Biotin and a triethylene glycol spacer at the 5′ end of the oligonucleotide. A 1 μM solution of the aptamer was prepared using the SELEX selection buffer. The aptamer solution was heated to 90° C. for 5 min, incubated on ice for 5 min and equilibrated to room temperature for 10 min. The preparation was injected on a streptavidin coated sensor chip SA of Biacore T200 instrument (GE Healthcare) at a flow rate of 10 μl/min for 7 min. Then, different concentrations of the target (Human polyclonal IgG, purified from human plasma with a purity of >95%) were injected to the immobilised aptamer at 30 μl/min for 1 minute. After dissociation for 1-2 min a wash step was performed by injecting a suitable wash buffer at 30 μl/min for 1 min. For elution, a suitable elution buffer was injected at 30 μl/min for 1-2 min Finally the sensor chip was regenerated by injection of 50 mM NaOH at 30 μl/min for 30 sec. During the course of the experiment the response signal was recorded in a sensorgram.

[3] = target: T1, IgG4 (plasma IgG sub-class); test: SPR; pH 5.5; resistant to 2 M NaCl; remark: listed apart in the source
Method: as §1, §2

T1 sequence (P01861 other isoform, or with tags, fused parts or gaps): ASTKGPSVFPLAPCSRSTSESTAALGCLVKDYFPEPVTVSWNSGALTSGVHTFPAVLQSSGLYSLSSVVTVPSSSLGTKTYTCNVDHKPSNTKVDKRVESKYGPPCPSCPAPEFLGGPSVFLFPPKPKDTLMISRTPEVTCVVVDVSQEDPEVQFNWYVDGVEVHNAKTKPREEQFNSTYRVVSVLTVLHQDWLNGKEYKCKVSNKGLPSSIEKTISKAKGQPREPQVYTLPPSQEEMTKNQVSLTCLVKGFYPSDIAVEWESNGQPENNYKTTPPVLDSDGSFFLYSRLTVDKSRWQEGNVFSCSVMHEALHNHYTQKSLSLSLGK

B1: A6-4 (ssDNA)
DNA: GGGTCAATGCCAGGTCTCAAGTTTGTGGGGCTGGGGTTCGGTCCTGGCACAAATTCGTATCGGCTCGCAAGCAGTC
modifications: 5' biotin-triethylene glycol spacer
binding result [1]: binds

B2: A6-2 (ssDNA)
DNA: GGGTCAATGCCAGGTCTCCCCAGCCTCATCTCACGGCATAGTCTCGCCACACTGGAAATCGGCTCGCAAGCAGTC
modifications: 5' biotin-triethylene glycol spacer (SPR); 5' amino-C6 spacer and 3' idT (chromatography)
binding result [1]: binds

B3: A6-3 (ssDNA)
DNA: GGGTCAATGCCAGGTCTCGACTATTCCTCCGGCCTCTTCCCTAATCAGTGGCATCTCTATCGGCTCGCAAGCAGTC
modifications: 5' biotin-triethylene glycol spacer
binding result [2]: binds

B4: A6-8 (ssDNA)
DNA: GGGTCAATGCCAGGTCTCCACGGTATAGTCTCGCCCAGTGCCCTTTGTTGGACTTCCTATCGGCTCGCAAGCAGTC
modifications: 5' biotin-triethylene glycol spacer
binding result [3]: binds
